The labels stand for the following.
B1: suPAR_DB04_C03 (scFv, V domains shown)
VH: QVQLVQSGAEVKKPGASVKVSCKASGYTFTSYYMHWVRQAPGQGLEWMGWIDPENGSTIYDQKFQGRVTMTRDTSTSTVYMELSSLRSEDTAVYYCASGYDVDWFVYWGQGTLVTVSS
VL: DIQMTQSPSSLSASVGDRVTITCSARSSVSYMYWYQQKPGKAPKLLIYRTSNLASGVPSRFSGSGSGTDFTLTISSLQPEDFATYYCQQYHSYPPTFGGGTKVEIK
notes: scFv clone from phage display
B2: suPAR_DB04_E09 (scFv, V domains shown)
VH: B1 VH with Y27D, S31D, M34I, P53H, I59S, S98R
VL: B1 VL with S24R, S27Q
notes: scFv clone from phage display
B3: suPAR_DB04_F01 (scFv, V domains shown)
VH: B1 VH with P53H, N55G, S57N, D61A, S98R, Y100D
VL: B1 VL with R26S, S27Q
notes: scFv clone from phage display
B4: suPAR_DB04_E06 (scFv, V domains shown)
VH: B1 VH with T28S, Y32H, P53H, S57N, S98R
VL: B1 VL with S24R
notes: scFv clone from phage display
B5: suPAR_DB04_E04 (scFv, V domains shown)
VH: B1 VH with M34V, P53H, S57N, S98R, Y100T
VL: B1 VL with S24R, S27Q
notes: scFv clone from phage display
B6: suPAR_DB04_E11 (scFv, V domains shown)
VH: B1 VH with S31N, M34V, P53H, S57N, S98R
VL: B1 VL with S27Q
notes: scFv clone from phage display
B7: suPAR_DB04_D07 (scFv, V domains shown)
VH: B1 VH with T30G, P53H, S57N, S98R
VL: B1 VL with S24R, S27Q
notes: scFv clone from phage display
B8: suPAR_DB04_F03 (scFv, V domains shown)
VH: QVQLVQSGAEVKKPGASVKVSCKASGYTIKDYYIHWVRQAPGQGLEWMGWIDPRSGDTNYGKNFQGRVTMTRDTSTSTVYMELSSLRSEDTAVYYCARGYDVDWFVYWGQGTLVTVSS
VL: B1 VL
notes: scFv clone from phage display
B9: suPAR_DB04_G03 (scFv, V domains shown)
VH: B1 VH with S31G, P53H, S57N, S98R
VL: B1 VL with R26S, A54Q
notes: scFv clone from phage display
B10: suPAR_DB04_F09 (scFv, V domains shown)
VH: B1 VH with S31N, M34F, P53H, S57N, I59S, S98R
VL: B1 VL
notes: scFv clone from phage display
B11: suPAR_DB04_E08 (scFv, V domains shown)
VH: B1 VH with S31G, P53H, S57N, I59S, D61A, S98R
VL: B1 VL
notes: scFv clone from phage display
B12: suPAR_DB04_F11 (scFv, V domains shown)
VH: B1 VH with Y32H, P53H, N55G, S57N, I59S, D61A, S98R
VL: B1 VL
notes: scFv clone from phage display
B13: suPAR_DB04_C07 (scFv, V domains shown)
VH: B1 VH with P53H, E54S, S57N, S98R, Y100D
VL: B1 VL
notes: scFv clone from phage display
B14: suPAR_DB04_F06 (scFv, V domains shown)
VH: B1 VH with S31G, P53H, S57N, I59S, D61A, S98R
VL: B1 VL with S27Q, V29I
notes: scFv clone from phage display
B15: suPAR_DB04_F08 (scFv, V domains shown)
VH: B1 VH with Y27G, P53H, E54S, I59S, D61A, K63E, S98R
VL: B1 VL
notes: scFv clone from phage display
B16: suPAR_DB04_E10 (scFv, V domains shown)
VH: B1 VH with T30S, M34F, E54N, N55T, S57D, D61A, S98R
VL: B1 VL
notes: scFv clone from phage display
B17: suPAR_DB04_D08 (scFv, V domains shown)
VH: B8 VH with I29L, K30S, D31G, I34M, R54N, D57A, Y60D, G61A, K62P, N63K
VL: B1 VL
notes: scFv clone from phage display
B18: suPAR_DB04_C06 (scFv, V domains shown)
VH: B1 VH with T30S, S31A, M34I, P53H, S57N, S98R, Y100N
VL: B1 VL with S27Q, A54Q
notes: scFv clone from phage display
B19: suPAR_DB04_C12 (scFv, V domains shown)
VH: B1 VH with Y27H, F29I, P53H, D61A, S98R
VL: B1 VL with S24R, R26S
notes: scFv clone from phage display
B20: suPAR_DB04_G04 (scFv, V domains shown)
VH: B1 VH with T28S, M34I, P53H, D61A, S98R
VL: B1 VL with R26S, S27Q
notes: scFv clone from phage display
B21: suPAR_DB04_F05 (scFv, V domains shown)
VH: B1 VH with T30S, S31D, M34V, P53H, N55G, I59S, D61A, S98R
VL: B1 VL with S27Q, V29I
notes: scFv clone from phage display
B22: suPAR_DB04_C09 (scFv, V domains shown)
VH: B1 VH with T30S, S31T, H35Q, S98R
VL: B1 VL with T50A
notes: scFv clone from phage display
B23: suPAR_DB04_D04 (scFv, V domains shown)
VH: B1 VH with F29I, T30K, S31D, P53H, D61A, S98R
VL: B1 VL
notes: scFv clone from phage display
B24: suPAR_DB04_C11 (scFv, V domains shown)
VH: B1 VH with T28S, S31D, S98R
VL: B1 VL
notes: scFv clone from phage display
B25: suPAR_DB04_C04 (scFv, V domains shown)
VH: B1 VH with S31G, P53H, S57N, I59S, S98R
VL: B1 VL with R26S, S27Q
notes: scFv clone from phage display
B26: suPAR_DB04_D03 (scFv, V domains shown)
VH: B1 VH with S98R
VL: B1 VL with S24R, S27Q
notes: scFv clone from phage display
B27: suPAR_DB04_E12 (scFv, V domains shown)
VH: B1 VH with S31T, S98R
VL: B1 VL with R26S, S27Q
notes: scFv clone from phage display
B28: suPAR_DB04_F10 (scFv, V domains shown)
VH: B1 VH with S31D, P53H, E54S, N55G, S57N, D61A, S98R
VL: B1 VL
notes: scFv clone from phage display
B29: suPAR_DB04_G02 (scFv, V domains shown)
VH: B1 VH with S31N, P53H, S57N, S98R
VL: B1 VL with N52S
notes: scFv clone from phage display
B30: suPAR_DB04_E07 (scFv, V domains shown)
VH: B1 VH with Y27D, M34I, P53H, S57N, S98R
VL: B1 VL
notes: scFv clone from phage display
B31: suPAR_DB04_F07 (scFv, V domains shown)
VH: B1 VH with S31G, M34V, P53H, S57N, S98R
VL: B1 VL
notes: scFv clone from phage display
B32: suPAR_DB04_F04 (scFv, V domains shown)
VH: B1 VH with P53H, S57N, I59S, S98R
VL: B1 VL
notes: scFv clone from phage display
B33: suPAR_DB04_E03 (scFv, V domains shown)
VH: B1 VH with S31N, P53H, N55G, D61A, S98R
VL: B1 VL
notes: scFv clone from phage display
B34: suPAR_DB04_D10 (scFv, V domains shown)
VH: B1 VH with N55G, S57N, I59S, S98T
VL: B1 VL
notes: scFv clone from phage display
B35: suPAR_DB04_C05 (scFv, V domains shown)
VH: B1 VH with Y27H, F29L, T30N, P53H, S57N, S98R
VL: B1 VL
notes: scFv clone from phage display
B36: suPAR_DB04_D05 (scFv, V domains shown)
VH: B1 VH with S31T, M48V, E54H, N55S, S57G, I59N, D61A, S98R
VL: B1 VL
notes: scFv clone from phage display

Changes are numbered by the printed parent chain.

For 36 molecules, koff results are on record in patent publication US20250215104A1 (WALDEN BIOSCIENCES, published 2025).

In one experiment the target is T1, cynomolgus soluble urokinase plasminogen activator receptor (cynomolgus suPAR) (cynomolgus, UniProt Q9GK78 23-303, limits assumed).
T1 construct: also called cynomolgus uPAR; cynoPLAUR-His
T1 sequence (Q9GK78 23-303 limits assumed): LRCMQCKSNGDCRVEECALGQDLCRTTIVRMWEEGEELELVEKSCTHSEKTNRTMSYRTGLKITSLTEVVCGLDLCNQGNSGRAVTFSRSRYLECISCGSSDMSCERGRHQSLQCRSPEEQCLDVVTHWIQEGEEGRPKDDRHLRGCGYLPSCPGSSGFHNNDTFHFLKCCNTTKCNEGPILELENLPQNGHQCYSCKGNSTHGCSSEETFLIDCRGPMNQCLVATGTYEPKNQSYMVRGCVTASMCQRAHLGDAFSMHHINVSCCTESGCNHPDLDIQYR
Nature of the experiment: off-rate screen of scFv clones (kdis), Octet BLI. (In BLI a coated tip is dipped into the sample, and binding shifts an interference pattern.)
In general, koff refers to a measure of how fast the partners let go of each other. Higher therefore signals a short-lived complex. Turning to B1, the off-rate constant (koff) amounted to 0.000158 s⁻¹.

For the molecule B2, the off-rate (koff) was 0.000446 s⁻¹.

B3 displayed a koff of 4.88e-07 s⁻¹.

As to B4, the off-rate (koff) was 0.000137 s⁻¹.

Regarding B5, the off-rate constant (koff) is 0.000451 s⁻¹.

The molecule B6 yielded a koff of 0.000158 s⁻¹.

For B7, the koff was determined as 0.000436 s⁻¹.

Turning to B8, the koff amounted to 0.000863 s⁻¹.

B9 showed a koff of 0.000747 s⁻¹.

Consider B10, for which the koff is 0.000122 s⁻¹.

In the case of B11, the koff was determined as 0.000149 s⁻¹.

B12 returned a koff of 0.000121 s⁻¹.

Molecule B13 showed a koff of 0.000249 s⁻¹.

Turning to B14, the koff was found to be 0.000195 s⁻¹.

B15: the dissociation rate constant (koff) was determined as 4.31e-05 s⁻¹.

B16 registered an off-rate (koff) of 0.000142 s⁻¹.

Take B17: the koff was 0.000343 s⁻¹.

B18: the koff turned out to be 4.14e-05 s⁻¹.

On to B19, for which the off-rate (koff) was 0.000255 s⁻¹.

B20 registered a koff of 0.000342 s⁻¹.

Turning to B21, the koff was 0.000278 s⁻¹.

The molecule B22 showed an off-rate (koff) of 0.00154 s⁻¹.

B23 came in with a koff of 0.000184 s⁻¹.

With B24, the koff was 0.000483 s⁻¹.

The molecule B25 registered an off-rate (koff) of 0.000384 s⁻¹.

In turn, B26 yielded an off-rate constant (koff) of 0.000353 s⁻¹.

Take B27: the off-rate constant (koff) came out at 8.15e-05 s⁻¹.

For the molecule B28, the dissociation rate constant (koff) was found to be 0.000274 s⁻¹.

B29 registered a dissociation rate constant (koff) of 0.000388 s⁻¹.

Regarding B30, the dissociation rate constant (koff) was found to be 0.00023 s⁻¹.

As to B31, the koff worked out at 3.33e-05 s⁻¹.

For the molecule B32, the koff came to 0.000174 s⁻¹.

B33 showed a koff of 0.000224 s⁻¹.

B34 gave an off-rate constant (koff) of 0.000402 s⁻¹.

In turn, B35 came in with a koff of 0.000421 s⁻¹.

B36: the off-rate (koff) was found to be 5.44e-05 s⁻¹.

A further experiment deals with T2, human soluble urokinase plasminogen activator receptor (hsuPAR) (human, UniProt Q03405 23-303, limits assumed).
T2 construct: also called human suPAR; rhuPAR-His
T2 sequence (Q03405 23-303 limits assumed): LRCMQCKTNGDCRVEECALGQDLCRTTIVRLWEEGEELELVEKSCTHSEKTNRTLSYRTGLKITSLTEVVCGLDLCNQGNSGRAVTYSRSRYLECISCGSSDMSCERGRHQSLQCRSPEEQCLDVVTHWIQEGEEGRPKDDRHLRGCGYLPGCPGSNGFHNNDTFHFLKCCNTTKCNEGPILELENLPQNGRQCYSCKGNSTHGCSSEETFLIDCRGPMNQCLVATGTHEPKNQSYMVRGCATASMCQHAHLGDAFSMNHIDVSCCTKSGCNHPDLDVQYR
Nature of the experiment: off-rate screen of scFv clones (kdis), Octet BLI.
In the case of B1, the koff was found to be 0.00368 s⁻¹.

In the case of B2, the dissociation rate constant (koff) is 0.00598 s⁻¹.

The molecule B3 registered an off-rate constant (koff) of 0.00267 s⁻¹.

B4 registered an off-rate (koff) of 0.00564 s⁻¹.

In turn, B5 gave a koff of 0.00335 s⁻¹.

Regarding B6, the koff was 0.00502 s⁻¹.

In turn, B7 came in with a koff of 0.00217 s⁻¹.

The molecule B8 gave an off-rate constant (koff) of 0.00375 s⁻¹.

B9: the off-rate constant (koff) amounted to 0.00119 s⁻¹.

With B10, the dissociation rate constant (koff) is 0.00462 s⁻¹.

For the molecule B11, the koff was determined as 0.00268 s⁻¹.

B12 showed a koff of 0.0051 s⁻¹.

B13 yielded a koff of 0.0031 s⁻¹.

On to B14, for which the koff stood at 0.00279 s⁻¹.

In turn, B15 displayed an off-rate (koff) of 0.00261 s⁻¹.

B16 returned a koff of 0.00116 s⁻¹.

As for B17, the off-rate constant (koff) is 0.00414 s⁻¹.

In turn, B18 came in with a dissociation rate constant (koff) of 0.00412 s⁻¹.

The molecule B19 gave a koff of 0.000626 s⁻¹.

In the case of B20, the koff is 0.000751 s⁻¹.

B21: the dissociation rate constant (koff) is 0.00405 s⁻¹.

In the case of B22, the off-rate constant (koff) worked out at 0.0013 s⁻¹.

As to B23, the koff was 0.00188 s⁻¹.

Turning to B24, the koff turned out to be 0.00562 s⁻¹.

Molecule B25 displayed a koff of 0.00229 s⁻¹.

On to B26, for which the koff is 0.00408 s⁻¹.

On to B27, for which the koff was 0.00336 s⁻¹.

Turning to B28, the off-rate constant (koff) is 0.00412 s⁻¹.

Molecule B29 yielded a dissociation rate constant (koff) of 0.00185 s⁻¹.

On to B30, for which the koff turned out to be 0.00311 s⁻¹.

Molecule B31 had a dissociation rate constant (koff) of 0.00269 s⁻¹.

Consider B32, for which the koff was found to be 0.00394 s⁻¹.

Molecule B33 gave a koff of 0.00116 s⁻¹.

B34 had a dissociation rate constant (koff) of 0.005 s⁻¹.

B35 gave a koff of 0.00245 s⁻¹.

Molecule B36 registered a koff of 0.004 s⁻¹.
